Experimental data taken from patent US20170015742A1 (published 2017).
Positions count from the first letter of the chain named.

B1: CL-34565_GS_3E2.1 (PR-1613185) (bispecific antibody, human IgG1, kappa, L234A L235A)
heavy: EVQLVQSGSELKKPGASVKVSCKASGYTFTDYGMYWVRQAPGQGLEWMGWIDTETGDPTYADDFKGRFVFSLDTSVSTAYLQISSLKAEDTAVYYCARTNYYYRNYMFYFDYWGQGTMVTVSSGGGGSGGGGSEVQLVQSGAEVKKPGSSVKVSCKASGYTFTESYMYWVKQAPGQGLELIGRIDPEDGSTDYVEKFKNKATLTADKSTSTAYMELSSLRSEDTAVYFCARFGARSYFYPMDAWGQGTTVTVSSASTKGPSVFPLAPSSKSTSGGTAALGCLVKDYFPEPVTVSWNSGALTSGVHTFPAVLQSSGLYSLSSVVTVPSSSLGTQTYICNVNHKPSNTKVDKKVEPKSCDKTHTCPPCPAPEAAGGPSVFLFPPKPKDTLMISRTPEVTCVVVDVSHEDPEVKFNWYVDGVEVHNAKTKPREEQYNSTYRVVSVLTVLHQDWLNGKEYKCKVSNKALPAPIEKTISKAKGQPREPQVYTLPPSREEMTKNQVSLTCLVKGFYPSDIAVEWESNGQPENNYKTTPPVLDSDGSFFLYSKLTVDKSRWQQGNVFSCSVMHEALHNAYTQKSLSLSPGK
light: EIVLTQSPATLSLSPGERATLFCRASQSVSNHMHWYQQKPGQAPRLLIYGASILESGVPARFSGSGSGTDFTLTISSLEPEDFAVYYCQQSWYDPITFGQGTKLEIKGGSGGGGSGGETVLTQSPATLSLSPGERATLSCRASESVSTLMHWYQQKPGQQPRLLIYGASNLESGVPARFSGSGSGTDFTLTISSLEPEDFAVYFCQQSWNDPWTFGGGTKVEIKRTVAAPSVFIFPPSDEQLKSGTASVVCLLNNFYPREAKVQWKVDNALQSGNSQESVTEQDSKDSTYSLSSTLTLSKADYEKHKVYACEVTHQGLSSPVTKSFNRGEC
B2: CL-34565_GS_CL-33675 (PR-1613183) (bispecific antibody, human IgG1, kappa, L234A L235A)
heavy: EVQLVQSGSELKKPGASVKVSCKASGYTFTDYGMYWVRQAPGQGLEWMGWIDTETGDPTYADDFKGRFVFSLDTSVSTAYLQISSLKAEDTAVYYCARTNYYYRNYMFYFDYWGQGTMVTVSSGGGGSGGGGSEVTLRESGPALVKPTQTLTLTCTFSGFSLSTYGMGVGWIRQPPGKALEWLANIWWDDDKYYNPSLKNRLTISKDTSKNQVVLTMTNMDPVDTATYYCARIESSGPKYSFDYWGQGTMVTVSSASTKGPSVFPLAPSSKSTSGGTAALGCLVKDYFPEPVTVSWNSGALTSGVHTFPAVLQSSGLYSLSSVVTVPSSSLGTQTYICNVNHKPSNTKVDKKVEPKSCDKTHTCPPCPAPEAAGGPSVFLFPPKPKDTLMISRTPEVTCVVVDVSHEDPEVKFNWYVDGVEVHNAKTKPREEQYNSTYRVVSVLTVLHQDWLNGKEYKCKVSNKALPAPIEKTISKAKGQPREPQVYTLPPSREEMTKNQVSLTCLVKGFYPSDIAVEWESNGQPENNYKTTPPVLDSDGSFFLYSKLTVDKSRWQQGNVFSCSVMHEALHNAYTQKSLSLSPGK
light: EIVLTQSPATLSLSPGERATLFCRASQSVSNHMHWYQQKPGQAPRLLIYGASILESGVPARFSGSGSGTDFTLTISSLEPEDFAVYYCQQSWYDPITFGQGTKLEIKGGSGGGGSGGEIVLTQSPGTLSLSPGERATLSCRASSGSIWYSFVSWYQQKPGQAPRLLIYADDQRASGIPDRFSGSGSGTDFTLTISRLEPEDFAVYYCQSYGINIDVVFGGGTKVEIKRTVAAPSVFIFPPSDEQLKSGTASVVCLLNNFYPREAKVQWKVDNALQSGNSQESVTEQDSKDSTYSLSSTLTLSKADYEKHKVYACEVTHQGLSSPVTKSFNRGEC
B3: CL-34565_GS_9E8.4 (PR-1613184) (bispecific antibody, human IgG1, kappa, L234A L235A)
heavy: B2 heavy with S236I, P238T, K239T
light: EIVLTQSPATLSLSPGERATLFCRASQSVSNHMHWYQQKPGQAPRLLIYGASILESGVPARFSGSGSGTDFTLTISSLEPEDFAVYYCQQSWYDPITFGQGTKLEIKGGSGGGGSGGEFVLTQSPGTLSLSPGERATLSCERSSGDIGDSYVSWYQQKPGQAPRLVIYADDQRPSGIPDRFSGSGSGTDFTLTISRLEPEDFAVYYCQSYDINIDIVFGGGTKVEIKRTVAAPSVFIFPPSDEQLKSGTASVVCLLNNFYPREAKVQWKVDNALQSGNSQESVTEQDSKDSTYSLSSTLTLSKADYEKHKVYACEVTHQGLSSPVTKSFNRGEC
B4: CL-33675_GS_CL-34565 (PR-1613186) (bispecific antibody, human IgG1, kappa, L234A L235A)
heavy: EVTLRESGPALVKPTQTLTLTCTFSGFSLSTYGMGVGWIRQPPGKALEWLANIWWDDDKYYNPSLKNRLTISKDTSKNQVVLTMTNMDPVDTATYYCARIESSGPKYSFDYWGQGTMVTVSSGGGGSGGGGSEVQLVQSGSELKKPGASVKVSCKASGYTFTDYGMYWVRQAPGQGLEWMGWIDTETGDPTYADDFKGRFVFSLDTSVSTAYLQISSLKAEDTAVYYCARTNYYYRNYMFYFDYWGQGTMVTVSSASTKGPSVFPLAPSSKSTSGGTAALGCLVKDYFPEPVTVSWNSGALTSGVHTFPAVLQSSGLYSLSSVVTVPSSSLGTQTYICNVNHKPSNTKVDKKVEPKSCDKTHTCPPCPAPEAAGGPSVFLFPPKPKDTLMISRTPEVTCVVVDVSHEDPEVKFNWYVDGVEVHNAKTKPREEQYNSTYRVVSVLTVLHQDWLNGKEYKCKVSNKALPAPIEKTISKAKGQPREPQVYTLPPSREEMTKNQVSLTCLVKGFYPSDIAVEWESNGQPENNYKTTPPVLDSDGSFFLYSKLTVDKSRWQQGNVFSCSVMHEALHNAYTQKSLSLSPGK
light: EIVLTQSPGTLSLSPGERATLSCRASSGSIWYSFVSWYQQKPGQAPRLLIYADDQRASGIPDRFSGSGSGTDFTLTISRLEPEDFAVYYCQSYGINIDVVFGGGTKVEIKGGSGGGGSGGEIVLTQSPATLSLSPGERATLFCRASQSVSNHMHWYQQKPGQAPRLLIYGASILESGVPARFSGSGSGTDFTLTISSLEPEDFAVYYCQQSWYDPITFGQGTKLEIKRTVAAPSVFIFPPSDEQLKSGTASVVCLLNNFYPREAKVQWKVDNALQSGNSQESVTEQDSKDSTYSLSSTLTLSKADYEKHKVYACEVTHQGLSSPVTKSFNRGEC
B5: 3E2.1_GS_1B10.1 (PR-1612502) (bispecific antibody, human IgG1, kappa, L234A L235A)
heavy: EVQLVQSGAEVKKPGSSVKVSCKASGYTFTESYMYWVKQAPGQGLELIGRIDPEDGSTDYVEKFKNKATLTADKSTSTAYMELSSLRSEDTAVYFCARFGARSYFYPMDAWGQGTTVTVSSGGGGSGGGGSEVQLVESGGGLVQPGGSLRLSCAASGFSFSKYDMAWFRQAPGKGLEWVASITTSGVGTYYRDSVKGRFTVSRDNAKSTLYLQMNSLRAEDTAVYYCARGYGAMDAWGQGTTVTVSSASTKGPSVFPLAPSSKSTSGGTAALGCLVKDYFPEPVTVSWNSGALTSGVHTFPAVLQSSGLYSLSSVVTVPSSSLGTQTYICNVNHKPSNTKVDKKVEPKSCDKTHTCPPCPAPEAAGGPSVFLFPPKPKDTLMISRTPEVTCVVVDVSHEDPEVKFNWYVDGVEVHNAKTKPREEQYNSTYRVVSVLTVLHQDWLNGKEYKCKVSNKALPAPIEKTISKAKGQPREPQVYTLPPSREEMTKNQVSLTCLVKGFYPSDIAVEWESNGQPENNYKTTPPVLDSDGSFFLYSKLTVDKSRWQQGNVFSCSVMHEALHNAYTQKSLSLSPGK
light: ETVLTQSPATLSLSPGERATLSCRASESVSTLMHWYQQKPGQQPRLLIYGASNLESGVPARFSGSGSGTDFTLTISSLEPEDFAVYFCQQSWNDPWTFGGGTKVEIKGGSGGGGSGGDIQMTQSPSSLSASVGDRVTITCKASQDIDDYLSWYQQKPGKSPKLVIYAATRLADGVPSRFSGSGSGTDYTLTISSLQPEDFATYYCLQSSSTPWTFGGGTKVEIKRTVAAPSVFIFPPSDEQLKSGTASVVCLLNNFYPREAKVQWKVDNALQSGNSQESVTEQDSKDSTYSLSSTLTLSKADYEKHKVYACEVTHQGLSSPVTKSFNRGEC
B6: 3E2.1_GS_9E10.1 (PR-1612500) (bispecific antibody, human IgG1, kappa, L234A L235A)
heavy: EVQLVQSGAEVKKPGSSVKVSCKASGYTFTESYMYWVKQAPGQGLELIGRIDPEDGSTDYVEKFKNKATLTADKSTSTAYMELSSLRSEDTAVYFCARFGARSYFYPMDAWGQGTTVTVSSGGGGSGGGGSEIQLVQSGSELKKPGASVKVSCKASGYTFTNYGMYWVKQAPGQGLEYMGWIDTETGRPTYADDFKGRFVFSLDTSVSTAYLQISSLKAEDTAVYFCARWSGDTTGIRGPWFAYWGQGTLVTVSSASTKGPSVFPLAPSSKSTSGGTAALGCLVKDYFPEPVTVSWNSGALTSGVHTFPAVLQSSGLYSLSSVVTVPSSSLGTQTYICNVNHKPSNTKVDKKVEPKSCDKTHTCPPCPAPEAAGGPSVFLFPPKPKDTLMISRTPEVTCVVVDVSHEDPEVKFNWYVDGVEVHNAKTKPREEQYNSTYRVVSVLTVLHQDWLNGKEYKCKVSNKALPAPIEKTISKAKGQPREPQVYTLPPSREEMTKNQVSLTCLVKGFYPSDIAVEWESNGQPENNYKTTPPVLDSDGSFFLYSKLTVDKSRWQQGNVFSCSVMHEALHNAYTQKSLSLSPGK
light: ETVLTQSPATLSLSPGERATLSCRASESVSTLMHWYQQKPGQQPRLLIYGASNLESGVPARFSGSGSGTDFTLTISSLEPEDFAVYFCQQSWNDPWTFGGGTKVEIKGGSGGGGSGGDIRMTQSPSSLSASVGDRVTIECLASEDIYSDLAWYQQKPGKSPKLLIYNANGLQNGVPSRFSGSGSGTDYSLTISSLQPEDVATYFCQQYNYFPGTFGQGTKLEIKRTVAAPSVFIFPPSDEQLKSGTASVVCLLNNFYPREAKVQWKVDNALQSGNSQESVTEQDSKDSTYSLSSTLTLSKADYEKHKVYACEVTHQGLSSPVTKSFNRGEC
B7: 3E2.1_GS_9E10.6 (PR-1612501) (bispecific antibody, human IgG1, kappa, L234A L235A)
heavy: EVQLVQSGAEVKKPGSSVKVSCKASGYTFTESYMYWVKQAPGQGLELIGRIDPEDGSTDYVEKFKNKATLTADKSTSTAYMELSSLRSEDTAVYFCARFGARSYFYPMDAWGQGTTVTVSSGGGGSGGGGSEVQLVQSGAEVKKPGSSVKVSCKASGYTFTNYGMYWVRQAPGQGLEWMGWIDTETGRPTYADDFKGRFTFTADKSTSTAYMELSSLRSEDTAVYYCARWSGDTTGIRGPWFAYWGQGTLVTVSSASTKGPSVFPLAPSSKSTSGGTAALGCLVKDYFPEPVTVSWNSGALTSGVHTFPAVLQSSGLYSLSSVVTVPSSSLGTQTYICNVNHKPSNTKVDKKVEPKSCDKTHTCPPCPAPEAAGGPSVFLFPPKPKDTLMISRTPEVTCVVVDVSHEDPEVKFNWYVDGVEVHNAKTKPREEQYNSTYRVVSVLTVLHQDWLNGKEYKCKVSNKALPAPIEKTISKAKGQPREPQVYTLPPSREEMTKNQVSLTCLVKGFYPSDIAVEWESNGQPENNYKTTPPVLDSDGSFFLYSKLTVDKSRWQQGNVFSCSVMHEALHNAYTQKSLSLSPGK
light: B6 light with E139T, S189T

The binders below were run against recombinant human VEGF165 (human, UniProt P15692 207-395) (assay: cell-based or functional assay).
Chain of recombinant human VEGF165 (P15692 other isoform, or with tags, fused parts or gaps limits assumed): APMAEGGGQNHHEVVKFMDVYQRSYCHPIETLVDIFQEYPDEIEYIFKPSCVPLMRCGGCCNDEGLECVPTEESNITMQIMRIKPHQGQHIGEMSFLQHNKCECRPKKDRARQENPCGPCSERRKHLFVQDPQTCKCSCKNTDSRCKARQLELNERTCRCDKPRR

Binder | Potency IC50 (nM), HMVEC-d hVEGF165 (proliferation) [nM]
B1 | 0.053
B2 | 0.059
B3 | 0.065
B4 | 0.05
B5 | 1.78
B6 | 0.133
B7 | 0.188

What follows are binders tested against recombinant human PDGF-BB (human, UniProt P01127 82-190) (assay: cell-based or functional assay).
Chain of recombinant human PDGF-BB (P01127 82-190 limits assumed): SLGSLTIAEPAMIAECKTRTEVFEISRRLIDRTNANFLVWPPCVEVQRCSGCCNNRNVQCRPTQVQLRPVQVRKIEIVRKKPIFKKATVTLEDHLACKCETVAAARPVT

Binder | Potency IC50 (nM), NIH-3T3 hPDGF-BB (proliferation) [nM]
B1 | 6
B2 | 0.052
B3 | 0.323
B4 | 0.043
B5 | 0.187
B6 | 0.394
B7 | 0.377
